Five molecules from patent US20130224798A1 can be followed below.

The target of the test is Toll-like Receptor 5 (TLR5) constitutively expressed by HEK293 cells (UniProt O60602). Description: cell-based or functional assay.

B1: STF2.HA1-2mutHis(PR8), produced in Baculovirus (protein)
chain: AQVINTNSLSLLTQNNLNKSQSALGTAIERLSSGLRINSAKDDAAGQAIANRFTANIKGLTQASRNANDGISIAQTTEGALNEINNNLQRVRELAVQSANSTNSQSDLDSIQAEITQRLNEIDRVSGQTQFNGVKVLAQDNTLTIQVGANDGETIDIDLKQINSQTLGLDSLNVQKAYDVKDTAVTTKAYANNGTTLDVSGLDDAAIKAATGGTNGTASVTGGAVKFDADNNKYFVTIGGFTGADAAKNGDYEVNVATDGTVTLAAGATKTTMPAGATTKTEVQELKDTPAVVSADAKNALIAGGVDATDANGAELVKMSYTDKNGKTIEGGYALKAGDKYYAADYDEATGAIKAKTTSYTAADGTTKTAANQLGGVDGKTEVVTIDGKTYNASKAAGHDFKAQPELAEAAAKTTENPLQKIDAALAQVDALRSDLGAVQNRFNSAITNLGNTVNNLSEARSRIEDSDYATEVSNMSRAQILQQAGTSVLAQANQVPQNVLSLLASGSGSGSKGAAPLQLGKCNIAGWLLGNPECDPLLPVRSWSDIAETPNSENGICYPGDFIDYEELREQLSSVSSFERFEIFPKESSWPNHNTNGVTAACSHEGKSSFYRNLLWLTEKEGSYPKLKNSYVNKKGKEVLVLWGIHHPPNSKEQQNLYQNENAYVSVVTSNYNRRFTPEIAERPKVRDQAGRMNYYWTLLKPGDTIIFEANGNLIAPMYAFALSRGFGSGIITSHHHHHH
As for B1, the TLR activity (EC50, ng/ml) was found to be 900 ng/mL.

B2: STF2.HA1-1His(PR8), produced in E. coli (protein)
chain: MAQVINTNSLSLLTQNNLNKSQSALGTAIERLSSGLRINSAKDDAAGQAIANRFTANIKGLTQASRNANDGISIAQTTEGALNEINNNLQRVRELAVQSANSTNSQSDLDSIQAEITQRLNEIDRVSGQTQFNGVKVLAQDNTLTIQVGANDGETIDIDLKQINSQTLGLDSLNVQKAYDVKDTAVTTKAYANNGTTLDVSGLDDAAIKAATGGTNGTASVTGGAVKFDADNNKYFVTIGGFTGADAAKNGDYEVNVATDGTVTLAAGATKTTMPAGATTKTEVQELKDTPAVVSADAKNALIAGGVDATDANGAELVKMSYTDKNGKTIEGGYALKAGDKYYAADYDEATGAIKAKTTSYTAADGTTKTAANQLGGVDGKTEVVTIDGKTYNASKAAGHDFKAQPELAEAAAKTTENPLQKIDAALAQVDALRSDLGAVQNRFNSAITNLGNTVNNLSEARSRIEDSDYATEVSNMSRAQILQQAGTSVLAQANQVPQNVLSLLASHNGKLCRLKGIAPLQLGKCNIAGWLLGNPECDPLLPVRSWSYIVETPNSENGICYPGDFIDYEELREQLSSVSSFERFEIFPKESSWPNHNTNGVTAACSHEGKSSFYRNLLWLTEKEGSYPKLKNSYVNKKGKEVLVLWGIHHPPNSKEQQNLYQNENAYVSVVTSNYNRRFTPEIAERPKVRDQAGRMNYYWTLLKPGDTIIFEANGNLIAPMYAFALSRGFGSGIITSNASMHECNTKCQTPLGAINSSLPYQNIHPVTIGECPKYVRHHHHHH
In turn, B2 returned a TLR5 activity (EC50, ng/ml) of 0.2 ng/mL.

B3: STF2.HA1-2His(PR8), produced in Baculovirus (protein)
chain: AQVINTNSLSLLTQNNLNKSQSALGTAIERLSSGLRINSAKDDAAGQAIANRFTANIKGLTQASRNANDGISIAQTTEGALNEINNNLQRVRELAVQSANSTNSQSDLDSIQAEITQRLNEIDRVSGQTQFNGVKVLAQDNTLTIQVGANDGETIDIDLKQINSQTLGLDSLNVQKAYDVKDTAVTTKAYANNGTTLDVSGLDDAAIKAATGGTNGTASVTGGAVKFDADNNKYFVTIGGFTGADAAKNGDYEVNVATDGTVTLAAGATKTTMPAGATTKTEVQELKDTPAVVSADAKNALIAGGVDATDANGAELVKMSYTDKNGKTIEGGYALKAGDKYYAADYDEATGAIKAKTTSYTAADGTTKTAANQLGGVDGKTEVVTIDGKTYNASKAAGHDFKAQPELAEAAAKTTENPLQKIDAALAQVDALRSDLGAVQNRFNSAITNLGNTVNNLSEARSRIEDSDYATEVSNMSRAQILQQAGTSVLAQANQVPQNVLSLLASGSGSGSKGIAPQLGKCNIAGWLLGNPECDPLLPVRSWSYIVETPNSENGICYPGDFIDYEELREQLSSVSSFERFEIFPKESSWPNHNTNGVTAACSHEGKSSFYRNLLWLTEKEGSYPKLKNSYVNKKGKEVLVLWGIHHPPNSKEQQNLYQNENAYVSVVTSNYNRRFTPEIAERPKVRDQAGRMNYYWTLLKPGDTIIFEANGNLIAPMYAFALSRGFGSGIITSHHHHHH
B3: the TLR activity (EC50, ng/ml) was determined as 9 ng/mL.

B4: ngSTF2.HA1-2mutHis(PR8), produced in Baculovirus (protein)
chain: AQVINTNSLSLLTQNNLQKSQSALGTAIERLSSGLRINSAKDDAAGQAIANRFTANIKGLTQASRNANDGISIAQTTEGALNEINNNLQRVRELAVQSAQSTNSQSDLDSIQAEITQRLNEIDRVSGQTQFNGVKVLAQDNTLTIQVGANDGETIDIDLKQINSQTLGLDSLNVQKAYDVKDTAVTTKAYANQGTTLDVSGLDDAAIKAATGGTQGTASVTGGAVKFDADNNKYFVTIGGFTGADAAKNGDYEVNVATDGTVTLAAGATKTTMPAGATTKTEVQELKDTPAVVSADAKNALIAGGVDATDANGAELVKMSYTDKNGKTIEGGYALKAGDKYYAADYDEATGAIKAKTTSYTAADGTTKTAANQLGGVDGKTEVVTIDGKTYQASKAAGHDFKAQPELAEAAAKTTENPLQKIDAALAQVDALRSDLGAVQNRFNSAITNLGNTVNQLSEARSRIEDSDYATEVSQMSRAQILQQAGTSVLAQANQVPQNVLSLLASGSGSGSKGAAPQLGKCNIAGWLLGNPECDPLLPVRSWSDIAETPNSENGICYPGDFIDYEELREQLSSVSSFERFEIFPKESSWPNHNTNGVTAACSHEGKSSFYRNLLWLTEKEGSYPKLKNSYVNKKGKEVLVLWGIHHPPNSKEQQNLYQNENAYVSVVTSNYNRRFTPEIAERPKVRDQAGRMNYYWTLLKPGDTIIFEANGNLIAPMYAFALSRGFGSGIITSHHHHHH
Regarding B4, the TLR activity (EC50, ng/ml) stood at 9 ng/mL.

B5: ngSTF2.HA1-1His(PR8), produced in Baculovirus (protein)
chain: AQVINTNSLSLLTQNNLQKSQSALGTAIERLSSGLRINSAKDDAAGQAIANRFTANIKGLTQASRNANDGISIAQTTEGALNEINNNLQRVRELAVQSAQSTNSQSDLDSIQAEITQRLNEIDRVSGQTQFNGVKVLAQDNTLTIQVGANDGETIDIDLKQINSQTLGLDSLNVQKAYDVKDTAVTTKAYANQGTTLDVSGLDDAAIKAATGGTQGTASVTGGAVKFDADNNKYFVTIGGFTGADAAKNGDYEVNVATDGTVTLAAGATKTTMPAGATTKTEVQELKDTPAVVSADAKNALIAGGVDATDANGAELVKMSYTDKNGKTIEGGYALKAGDKYYAADYDEATGAIKAKTTSYTAADGTTKTAANQLGGVDGKTEVVTIDGKTYQASKAAGHDFKAQPELAEAAAKTTENPLQKIDAALAQVDALRSDLGAVQNRFNSAITNLGNTVNQLSEARSRIEDSDYATEVSQMSRAQILQQAGTSVLAQANQVPQNVLSLLASGSGSGSSHNGKLCRLKGIAPLQLGKCNIAGWLLGNPECDPLLPVRSWSYIVETPNSENGICYPGDFIDYEELREQLSSVSSFERFEIFPKESSWPNHNTNGVTAACSHEGKSSFYRNLLWLTEKEGSYPKLKNSYVNKKGKEVLVLWGIHHPPNSKEQQNLYQNENAYVSVVTSNYNRRFTPEIAERPKVRDQAGRMNYYWTLLKPGDTIIFEANGNLIAPMYAFALSRGFGSGIITSQASMHECNTKCQTPLGAIQSSLPYQNIHPVTIGECPKYVRHHHHHH
B5: the TLR activity (EC50, ng/ml) was 30 ng/mL.
